Assay results reported in patent publication US20080267908A1 (YEDA RESEARCH AND DEVELOPMENT, published 2008).

Columns and labels:
[1] = biological target: T1, 125I-IL-32 (radio-iodinated IL-32)
T1 chain: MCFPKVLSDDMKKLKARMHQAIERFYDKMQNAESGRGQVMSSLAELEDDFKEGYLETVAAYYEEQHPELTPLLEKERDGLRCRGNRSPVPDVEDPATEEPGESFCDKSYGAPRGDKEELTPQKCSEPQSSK

[2] = biological target: T2, human urinary PR-3 inactivated by phenyl methyl sulfonyl fluoride (PMSF) (human, UniProt P24158 28-248, inactivated by PMSF (1 mM); the modified residue is not stated); experiment: SPR (BIAcore), IL-32 immobilized; urinary PR-3 inactivated by PMSF (1 mM) (FIG. 2B)
T2 construct: mature; Same preparation as the urinary PR-3, treated with PMSF before the assay; also called PMSF pretreated urinary PR-3
T2 sequence (looked up): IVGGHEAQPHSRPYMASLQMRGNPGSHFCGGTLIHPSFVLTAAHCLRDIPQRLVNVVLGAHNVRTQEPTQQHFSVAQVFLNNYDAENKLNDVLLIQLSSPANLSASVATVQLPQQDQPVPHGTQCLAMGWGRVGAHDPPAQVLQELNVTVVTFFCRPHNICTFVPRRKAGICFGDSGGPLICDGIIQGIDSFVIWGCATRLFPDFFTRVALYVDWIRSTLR
Method: (§1) FIG. 2 A. IL-32 (20 μg/ml) in acetate buffer pH 4.6) was immobilized to a single channel of a BIAcore chip as recommended by the manufacturer (Amersham Pharmacia, Uppsala Sweden). […] The resulting kD was 7.9×10⁻⁸ M.
(§2) IL-32 (20 μg/ml) in acetate buffer pH 4.6) was immobilized to a single channel of a BIAcore chip as recommended by the manufacturer (Amersham Pharmacia, Uppsala Sweden). […] The same analysis was done with PR-3 that was inactivated by PMSF (1 mM) (FIG. 2B). The resulting kD was 7.9×10⁻⁸ M. The same analysis was done with a commercially available human neutrophil derived PR-3 (Athens Research and Technology, Athens Ga., 0.5 μg in 20 μl gelatin solution) (FIG. 3A). The resulting kD was 1.2×10⁻⁸ M. The binding was repeated with commercial PR-3 that was inactivated by PMSF (FIG. 3B). The resulting kD was 3.5×10⁻⁸ M.

[3] = biological target: T3, commercially available human PR-3 (Athens Research and Technology) inactivated by PMSF (human, UniProt P24158 28-248, inactivated by PMSF; the modified residue is not stated); experiment: SPR (BIAcore), IL-32 immobilized; commercial PR-3 inactivated by PMSF (FIG. 3B)
T3 construct: mature; Same product as the commercial PR-3, treated with PMSF before the assay; also called PMSF pretreated commercial PR-3
T3 sequence (looked up): T2 sequence (looked up)
Method: as §1
(§3) For details see FIG. 2. The binding data gave a kD of 1.2×10⁻⁸ M with active PR-3, which considerably degraded the immobilized IL-32 (FIG. 3 A). The kD of commercially available PR-3 that was inactivated by PMSF (FIG. 3 B) was 3.5×10⁻⁸ M.
as §2

[4] = biological target: T4, human urinary Proteinase-3 (PR-3), affinity purified (elution fraction 3 of the IL-32 column), active (human, UniProt P24158 28-248); experiment: SPR (BIAcore), IL-32 immobilized, PR-3 at 10-80 nM; urinary PR3, active (FIG. 2A)
T4 construct: mature; also called urinary PR-3; urinary PR3
T4 sequence (looked up): T2 sequence (looked up)
Method: as §1, §2

[5] = biological target: T5, commercially available human neutrophil derived PR-3 (Athens Research and Technology), active (human, UniProt P24158 28-248); experiment: SPR (BIAcore), IL-32 immobilized; commercial neutrophil-derived PR-3, active (FIG. 3A)
T5 construct: mature; Bought; purified from human neutrophils; also called commercial PR-3; commercially available PR-3
T5 sequence (looked up): T2 sequence (looked up)
Method: as §1, §3, §2

B1: human urinary Proteinase-3 (PR-3), affinity purified (elution fraction 3 of the IL-32 column), active (protein)
chain: T2 sequence (looked up)
[1]
  cleavage of 125I-IL-32 (SDS-PAGE, autoradiography): the 20 kDa band completely disappeared and the levels of the 16 and 13 kDa IL-32 cleavage products increased after a 5 min. incubation with PR-3

B2: commercially available human neutrophil derived PR-3 (Athens Research and Technology), active (protein)
chain: T2 sequence (looked up)
[1]
  cleavage of 125I-IL-32 (SDS-PAGE, autoradiography): the commercial PR-3 is more potent than the urinary PR-3, leading to complete disappearance of the 20 kDa IL-32 band within 1 min

B3: human urinary PR-3 inactivated by phenyl methyl sulfonyl fluoride (PMSF) (protein)
chain: T2 sequence (looked up)
[1]
  cleavage of 125I-IL-32 (SDS-PAGE, autoradiography): no cleavage products were observed with PMSF pretreated PR-3 incubated with IL-32

B4: commercially available human PR-3 (Athens Research and Technology) inactivated by PMSF (protein)
chain: T2 sequence (looked up)
[1]
  cleavage of 125I-IL-32 (SDS-PAGE, autoradiography): no cleavage products were observed with PMSF pretreated PR-3 incubated with IL-32

B5: recombinant human IL-32α produced in E. coli (ligand)
chain: T1 chain
notes: also called hrIL-32; human recombinant IL-32
[2]
  Kd: 79 nM
[3]
  Kd: 35 nM
[4]
  Kd: 26.5 nM
[5]
  Kd: 12 nM
